# Measured values from PMC7566517, “Long-acting antibody ligand mimetics for HER4-selective agonism” (Scientific Reports, 2020).
# T1: recombinant human HER4 ECD, biotinylated (human, UniProt Q15303 26-651, biotinylated (site not stated))
# T1 construct: human epidermal growth factor receptor family member 4 (HER4, ErbB4), extracellular domain; Captured on streptavidin biosensors by its biotin; also called ErbB4; source: in-house purified recombinant
# T1 sequence (looked up): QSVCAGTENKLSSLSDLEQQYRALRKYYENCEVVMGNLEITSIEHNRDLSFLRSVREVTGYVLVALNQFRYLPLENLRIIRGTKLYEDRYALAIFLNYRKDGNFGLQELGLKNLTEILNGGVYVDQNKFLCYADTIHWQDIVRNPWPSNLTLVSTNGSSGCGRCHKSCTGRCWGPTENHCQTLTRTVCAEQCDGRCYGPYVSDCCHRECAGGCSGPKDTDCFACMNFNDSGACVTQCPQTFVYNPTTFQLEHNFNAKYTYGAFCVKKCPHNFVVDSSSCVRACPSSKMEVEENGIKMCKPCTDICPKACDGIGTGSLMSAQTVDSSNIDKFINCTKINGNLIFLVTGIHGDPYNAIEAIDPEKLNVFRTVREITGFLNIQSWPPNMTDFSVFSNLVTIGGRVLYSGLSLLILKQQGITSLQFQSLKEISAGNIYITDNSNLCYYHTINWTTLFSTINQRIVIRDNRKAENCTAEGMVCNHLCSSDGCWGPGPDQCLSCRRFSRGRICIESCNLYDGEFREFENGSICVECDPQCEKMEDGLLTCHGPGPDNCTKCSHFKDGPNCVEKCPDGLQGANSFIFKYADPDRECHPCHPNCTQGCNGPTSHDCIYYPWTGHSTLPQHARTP
# B1: NRG1-MFc fusion protein (NRG1 EGF domain fused with monomeric Fc) (Fc fusion, human)
# chain: GTSHLVKCAEKEKTFCVNGGECFMVKDLSNPSRYLCKCPNEFTGDRCQNYVMASF
# notes: neuregulin-1 beta (NRG1b) EGF domain, about 60 amino acids; numbers count on: the EGF domain (His2, Cys45); also called neuregulin-MFc; parental clone; source: HEK293FT, transient transfection, purified (protein A); not shown: monomeric Fc (MFc C4)
# B2: ALM3 (antibody ligand mimetic 3) (antibody)
# chain 1: not shown
# chain 2: EIVLTQSPGTLSLSPGERATFSCRSSHSIRSRRVAWYQHKPGQAPRLVIHGVSNRASGISDRFSGSGSGTDFTLTITRVEPEDFALYYCQVYGASSYTFGQGTKLERKRTVAAPSVFIFPPSDEQLKSGTASVVCLLNNFYPREAKVQWKVDNALQSGNSQESVTEQDSKDSTYSLSSTLTLSKADYEKHKVYACEVTHQGLRSPVTKSFNRGEC
# B3: ALM4 (antibody ligand mimetic 4) (antibody)
# chain 1: not shown
# chain 2: B2 chain 2
# B4: NRG1 fused with human serum albumin (ligand, UniProt Q02297-6 177-236, looked up)
# chain: SHLVKCAEKEKTFCVNGGECFMVKDLSNPSRYLCKCPNEFTGDRCQNYVMASFYKHLGIE
# notes: neuregulin 1 (NRG1) fused with HSA, control protein; Control protein; also called NRG1-HSA
# Molecular target: T1, recombinant human HER4 ECD, biotinylated
# Test: BLI; Octet 384; biotinylated HER4 or HER3 at 1 μg/mL captured on streptavidin biosensors; PBS pH 7.4, 3 mg/mL BSA, 0.05% Tween 20; serial dilutions of the variants; steady-state fit
# Conditions: both partners purified
row,Kd,Binder
1,640 nM,B1
2,> 10000 nM,B2
3,5600 nM,B3
4,460 nM,B4
